Here are results for one molecule from patent US8389237B2, “Antibodies against RAMP3” (Medella Therapeutics Limited, priority 2007, dated 2013).

Assay [1] deals with PC-3 prostate cancer cell line. Description: MTT Cell Proliferation assay, PC-3 prostate cancer cell line. The following applies: PC-3, 10 μg, after 8 days of culture, FIG. 19. Format: cell-based. Here is the method: (§1) Two groups of proliferation studies were carried out for each antibody. One group was used to study the effect on proliferation by the antibody in presence of endogenous adrenomedullin, while the other group was used to the study the effects of antibody in presence of exogenously added adrenomedullin. Varying concentrations of antibody were prepared in PBS to result in final well concentrations of 10 μg, 1 μg, 100 ng, 10 ng, 1 ng, 100 pg, 10 pg and 1 pg. Six replicates of each concentration of each antibody was carried out. This dose range was used in both groups. Adrenomedullin was added to the appropriate group to a final well concentration of 200 nM. 5-FluoroUracil (Fluka) was used as a positive control (100 mM) for the reduction in proliferation. PBS controls were also prepared. The plates were then incubated under standard conditions. Replacement and re-dosing of antibody and controls was carried out every 2 days. Mouse anti-GST antibody concentration responses were also calculated the similar way since it was the antibody control for the experiment
(§2) In order to check for consistency of the cells seeded, a 12-24 hours study was performed. Further time points were carried out at 2, 4, 6 and 8 days. […] The plate was read for absorbance at 595 nm (Spectramax M5e), using the software Softmax™ Pro 5.2.X 100035.

Assay [2] has as its system MDA-MB-436-GFP breast cancer cell line. Description: MTT Cell Proliferation assay, MDA-MB-436-GFP breast cancer cell line. Format: cell-based. The following applies: after 8 days of culture, FIG. 17. How it is done:
as §1, §2

Assay [3] has the same test system. Description: Apoptosis assay (caspase-3), MDA-MB-436-GFP cells. Format: cell-based. The following applies: 10 μg, FIG. 23. Here is the method:
(§3) The apoptosis assay was carried out using the Caspase-3 Assay kit (Sigma).
(§4) 2×10^7 cells wens taken for each treatment. The treatment groups were, antibody treated cells (for each antibody), anti-Fas antibody, antibody and adrenomedullin treated cells, blank and adrenomedullin treated cells. The positive control used was anti-Fas monoclonal antibody (MBL). The final concentration of antibodies used was […] and for anti-Fas antibody was 500 ng.
(§5) The treated cell suspension in 2 ml media were incubated for 3 hours at 37° C. in a 5% CO2 atmosphere.
(§6) The assay buffer and lysis buffer given in the kit was prepared using the given 17 megohm water as per the standard instructions given in the protocol. After 3 hours of incubation, the cells were centrifuged at 600 g for 5 minutes at 4° C. The supernatant was discarded and the cells were resuspended in 1 ml PBS. The cells were once again centrifuged using the above mentioned conditions and the supernatant was discarded. The cell pellet was resuspended in 200 μl 1× lysis buffer and incubated on ice for 20 minutes. The lysed cells were centrifuged at 20,000 g for 15 minutes at 4° C. The cell lysine were then laid out in a 96 well flat bottomed plate as shown in FIG. 6 and incubated overnight. The absorbance was read at 405 nm (Spectramax M5e), using the software Softmax™ Pro 5.2.36.

Assay [4] relates to U-87 glioblastoma cell line. The assay can be described thus: MTT Cell Proliferation assay, U-87 glioblastoma cell line. Format: cell-based. The note with it: U-87, 10 μg dose, after 8 days of culture; FIG. 14. Here is the method:
The cell culture was carried out under aseptic conditions on Nunclon™ treated tissue culture plastics. The U-87 glioblastoma cells (ATCC noHTB-14) used for this project were cultured in standard EMEM (Earle's Minimum Essential Medium) media (Gibco) with 10% Fetal Calf Serum (Gibco) and 5% Penicillin/Streptomycin antibiotic (Sigma). The frozen cells were thawed at 37° C. for 2 minutes. The cells were then immediately transferred to 75 cm2 flask with 10 ml of media. The culture was incubated at 37° C. with 5% CO2 to attain confluency. The media was changed every three days and the cells were then subcultured after reaching 80-90% confluency. […]
The U87 glioblastoma cells were grown under standard conditions (as mentioned above). The total number of cells were counted using a haemocytometer (Hawksley) and the concentration was calculated using the following equation: […]
Two groups of proliferation studies were carried out for each antibody. […] Mouse anti-GST antibody concentration responses were also calculated the similar way since it was the antibody control for the experiment
In order to check for consistency of the cells seeded, a 12-24 hours study was performed. […] The plate was read for absorbance at 595 nm (Spectramax M5e), using the software Softmax™ Pro 5.2.X 100035.
The proliferation/survival of SW-13 and U87 (Glioblastoma cell line) cells was determined using the MTT assay.

Assay [5] relates to U-87 glioblastoma cancer cell line. Description: Apoptosis assay (caspase-3), U-87 cells. Format: cell-based. The following applies: U-87, 10 μg; FIG. 22. Here is the method: as §3
U-87 cells were prepared under standard conditions. A cell solution of 2×10^7 cells was made up in 2 ml of media were dispensed into polypropylene tubes.
as §4, §5
as §6, with “The cell lysine were then laid out in a 96 well flat bottomed plate as shown in FIG. 6 and incubated overnight.” left out

Assay [6] concerns MDA-MB-436-GFP breast cancer cells. The assay can be described thus: MDA-MB-436-GFP xenograft in CD1 nude mice. Format: in vivo, CD1 nude (nu/nu) mice. The following applies: right flank of CD1 nude mice, 6 weeks. How it is done: MDA-MB-436-GFP cells were cultured in RPMI media containing penicillin (50 U/ml), streptomycin (50 μg/ml), glutamine (1 mg/ml), and supplemented with 10% fetal bovine serum. Cells were cultured under a humid 5% CO2/95% air atmosphere, and fed with fresh medium every 2 days, being routinely monitored for mycoplasma contamination. Cells growing exponentially were harvested using Trypsin EDAT solution. All culture media components were purchased from Invitrogen Life Technologies
Animal work was performed in the animal facility of the University of Sheffield. Male 4-to-5-week-old CD1 nude (nu/nu) mice were used. Mice were acclimated and housed in sterile cages in groups of four or less under laminar flow hoods in a temperature-controlled room with a 12-hour light/12-hour dark schedule, and fed autoclaved chow and water ad libitum.
CD1 nude (nu/nu) nude mice were implanted with MDA-MB-436-GFP breast cancer cells. For the cell implantations, MDA-MB-436-GFP cells, grown in culture, were washed with PBS, dispersed in a 0.05% solution of trypsin, and resuspended. […] Tumors were measured with a digital venier calliper (Site), and tumour volumes were determined using the formula width×length×height×0.52 (for ellipsoid form), these measurement were taken twice weekly. […]

Assay [7] relates to HCT116 colon cancer cell line. The assay can be described thus: MTT Cell Proliferation assay, HCT116 colon cancer cell line. Format: cell-based. The following applies: HCT116, 10 μg, after 8 days of culture; FIG. 21. How it is done: as §1, §2

B1: JF2: monoclonal anti-RAMP-3 antibody, IgG, IgG1 subtype (antibody, V domains shown)
VH: QVQLVESGGGVVQPGKSLRLSCAASGFTFSSYGMYWVRQAPGKGLEWVAVISYDGSNKYYADSVKGRFTISRDNSKNTLYLQMNSLRAEDTAVYNCAKEMRYGSGRKAIKYYYGMDVWGQGTTVTVSSASTKGPSVFPLA
VL: DIQMTQSPSSLSASLGERVSLTCRASQDIGSNLNWLQQEPDGTIKRLIYATSSLDSGVPKRFSGSRSGSDYSLTISSLESEDFVDYYCLQYASSPPTFGGGTKLEIKRADAAPTVSIFPPSSKLG
With B1, the reduction in proliferation in assay [1] (in the absence of exogenously added adrenomedullin) came to 22%; in assay [1] (in the presence of adrenomedullin), 37%; in assay [2] (10 μg (greatest reduction)), 12%; in assay [4] it was 40%. Further, the “reduction in proliferation compared to controls” value in assay [2] (doses 1 μg and 10 μg) is on record as “significant reduction in proliferation”; in assay [7], “no statistically significant reduction in proliferation”. Moreover, in assay [3], the “levels of caspase-3 (apoptosis), significance” value is recorded as “only antibody JB3 showed a significant increased”. Besides, the “increase levels of caspase-3” value in assay [5] amounted to 26%. Moreover, the tumour volume result in assay [6] (versus control groups, FIG. 24) is “rates of growth within the treatment groups are considerably slower”. The tumour weights entry in assay [6] (calculated back using the volumes of tumours, FIG. 25) is reported as “still remain below control groups”.
